Data set [1] in a line: folding stability dG unfold from trypsin proteolysis; higher = more stable. The procedure, abridged:
(§1)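 How resistant each design was to proteolysis was captured as K50, inferred by Bayesian fitting of sequencing counts. Unfolding free energy was then derived relative to a sequence-predicted unfolded-state K50 and a shared folded-state K50, per protease or combined. Digestion used trypsin and chymotrypsin at 11 threefold-diluted concentrations plus a no-protease condition, on mini-proteins under 80 residues without cysteine in a PA-tagged cDNA display construct. Designs were kept only when AlphaFold2 dimer inter-PAE was above 15.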

Data set [2] is described as follows: folding stability dG unfold (combined trypsin and chymotrypsin); higher = more stable. The procedure, abridged: as §1
Data set [3] in a line: folding stability dG unfold from chymotrypsin proteolysis; higher = more stable. The procedure, abridged: as §1

± gives the half width of the 95% confidence interval.

With “SAGGSAGGSAQPIPIKIRIRMRDDGKPQTFTFEVPVKPGATESTILDKIMKKFPGFRHIEIESAGGSAGGSA [r18_195_TrROS]”, the “folding stability dG unfold” value turned out to be 1.06 ± 0.035 kcal/mol in data set [1], 1.06 ± 0.085 kcal/mol in data set [2] and 0.961 ± 0.066 kcal/mol in data set [3].
As to “SAGGSAGGSARTLTLTFLTDSPEVAERFVRELREQKPLRVEASYRRLPDGRYLVTVTIHLDSAGGSAGGSAG [r3_273_TrMRF]”, the “folding stability dG unfold” value in data set [1] worked out at 3.21 ± 0.084 kcal/mol; in data set [2], 4.64 ± 0.074 kcal/mol; in data set [3], 5.14 ± 0.14 kcal/mol.
In the same order, the values of “SAGGSAGGSASIEVAAPPDATVTITTEITRKLPAGAKLPNGVVASADETLKETVTTTITVLGSAGGSAGGSA [r18_450_JUSTAS]” are -0.27 ± 0.29 kcal/mol, 0.364 ± 0.34 kcal/mol and 0.817 ± 0.047 kcal/mol.
For “SAGGSAGGSASITYENGYATITLKVPEGTVRIVDLATNEVIEIKPGDTVTIRVKIPPPPPESAGGSAGGSAG [r3_185_TrROS_Hall]”, the “folding stability dG unfold” value amounted to 2.31 ± 0.095 kcal/mol in data set [1], 1.73 ± 0.18 kcal/mol in data set [2] and 1.55 ± 0.059 kcal/mol in data set [3].
Take “SAGGSAGGSASKDDKIVKVKVFTIKLKPNLEGLPKKVRELLEKLGIKEIKITFVSVFNPEDFSAGGSAGGSA [r18_127_TrMRF]”: the results for the “folding stability dG unfold” value in data set [1], in data set [2] and in data set [3] were 3.23 ± 0.2 kcal/mol, 3.93 ± 0.17 kcal/mol and 4.34 ± 0.14 kcal/mol, respectively.
Turning to “SAGGSAGGSASKTIFIPAAVVAANPEKAVEFAEKVREEFEKKGLSVKTEVLPDGGIGIHVGSAGGSAGGSAG [r3_75_TrMRF]”, the “folding stability dG unfold” value is 2.07 ± 0.071 kcal/mol in data set [1], 1.88 ± 0.087 kcal/mol in data set [2] and 1.61 ± 0.054 kcal/mol in data set [3].
For “SAGGSAGGSASLDLSNATVLEEKTDPAKGLKTLTIKTPTSTLTITVEFDENGNPVKMTVFESAGGSAGGSAG [r3_5_JUSTAS]”, in that order: 1.71 ± 0.037 kcal/mol, 2.03 ± 0.048 kcal/mol and 2.2 ± 0.057 kcal/mol.
Take “SAGGSAGGSASMAPPEVLSLPVEILEKSPDGSVTVLVPETGEVLTFPSPKVNVTPDGTLNLSSAGGSAGGSA [r18_89_JUSTAS]”: the results for the “folding stability dG unfold” value in data set [1], in data set [2] and in data set [3] were 0.416 ± 0.042 kcal/mol, 0.0808 ± 0.1 kcal/mol and -0.611 ± 0.16 kcal/mol, respectively.
As to “SAGGSAGGSASMKKKKFVVKTEEEAEKVIAELKAKVPKGTEVEIYIKNEDGTLEKYAIIKISAGGSAGGSAG [r3_92_JUSTAS]”, the figures for the “folding stability dG unfold” value in data set [1], in data set [2] and in data set [3] were 2.91 ± 0.11 kcal/mol, 3.13 ± 0.15 kcal/mol and 3.15 ± 0.047 kcal/mol, respectively.
For “SAGGSAGGSASSLEESLRAELPEGKPARIEVKVELEKTPNGKLKVKEVKVTVTLPNGPVVGSAGGSAGGSAG [r3_247_JUSTAS]”, in that order: 0.572 ± 0.077 kcal/mol, 1.24 ± 0.11 kcal/mol and 1.52 ± 0.072 kcal/mol.
Turning to “SAGGSAGGSASSSPVTVETKTLEVEFKDDEIIVKEKVTTKYPNGKTTVTVTTTTIKVDPNLDSAGGSAGGSA [r18_291_JUSTAS]”, the “folding stability dG unfold” value came to 1.21 ± 0.1 kcal/mol in data set [1], 1.34 ± 0.12 kcal/mol in data set [2] and 1.55 ± 0.1 kcal/mol in data set [3].
As to “SAGGSAGGSASSSSSIKFLSEEEIKLPDGTPVKVKIYKDPSNNKEYLYLPESKVWLPISKISAGGSAGGSAG [r3_181_JUSTAS]”, the “folding stability dG unfold” value in data set [1] amounted to 1.41 ± 0.033 kcal/mol; in data set [2] it was 1.67 ± 0.1 kcal/mol; in data set [3] it was 1.74 ± 0.037 kcal/mol.
On to “SAGGSAGGSASTSEKIDYPNPPITVTRLPNGVVLVTYSDSNTTTVIPESVLATLPPTVPLFSAGGSAGGSAG [r3_256_JUSTAS]”, for which the “folding stability dG unfold” value in data set [1] is 1.58 ± 0.048 kcal/mol; in data set [2], 1.33 ± 0.043 kcal/mol; in data set [3], 1.12 ± 0.013 kcal/mol.
For the sequence “SAGGSAGGSASVEEIADKIQQLHGVDVEVTEPQPNSNGYPRWRIKVDLKGLPEKWMQELLNSAGGSAGGSAG [r3_40_TrROS]”, the “folding stability dG unfold” value in data set [1] was determined as 0.681 ± 0.17 kcal/mol; in data set [2], 0.372 ± 0.11 kcal/mol; in data set [3], 0.217 ± 0.19 kcal/mol.
On to “SAGGSAGGSASVKVEEKPTEIVITTKSPSPVITVETIPLSPDGVPVGKKTTTISLPPKDIILSAGGSAGGSA [r18_300_JUSTAS]”, for which the “folding stability dG unfold” value was -0.3 ± 0.11 kcal/mol in data set [1], -0.719 ± 0.47 kcal/mol in data set [2] and -0.778 ± 0.15 kcal/mol in data set [3].
For the sequence “SAGGSAGGSASVTTTTTPLPGDRTLTTTTYPDGTVKVTTYTVDTATGTVTSTSTTLSPATLTSAGGSAGGSA [r18_325_JUSTAS]”, the “folding stability dG unfold” value was 1.15 ± 0.042 kcal/mol in data set [1], 0.856 ± 0.082 kcal/mol in data set [2] and 0.254 ± 0.12 kcal/mol in data set [3].
As to “SAGGSAGGSATIRIPWDKIKDALEEHDMTVTNIEPNPGGNPWVEIEVNGTPEQREKIQEALKSAGGSAGGSA [r18_175_TrROS]”, the entries for the “folding stability dG unfold” value in data set [1], in data set [2] and in data set [3] were 0.369 ± 0.045 kcal/mol, 0.313 ± 0.12 kcal/mol and 0.255 ± 0.15 kcal/mol, respectively.
Turning to “SAGGSAGGSATKTIKVKNADGETVELTVEKREDGSYKITLTFPDGTKKTFTIKPGEKIVIKPSAGGSAGGSA [r18_115_TrROS_Hall]”, the “folding stability dG unfold” value in data set [1] is 2.42 ± 0.11 kcal/mol; in data set [2] it was 3.9 ± 0.12 kcal/mol; in data set [3] it was 4.24 ± 0.098 kcal/mol.
In the same order, the values of “SAGGSAGGSAVLDPSSPRPFEIVEVRRVRFEATVSFAGRPRKLEIEVDLLLVRDPSNGRIGSAGGSAGGSAG [r3_391_TrMRF]” are 2.19 ± 0.04 kcal/mol, 3.14 ± 0.15 kcal/mol and 3.54 ± 0.049 kcal/mol.
Turning to “SAGGSAGGSAVPPDRPFTLPVLTLVRDPETGELYLARAEVTFLAPDPVITAARLEVFPPDADFSAGGSAGGS [r12_868_TrMRF]”, the figures for the “folding stability dG unfold” value in data set [1], in data set [2] and in data set [3] were 0.761 ± 0.058 kcal/mol, 1.34 ± 0.09 kcal/mol and 1.69 ± 0.085 kcal/mol, respectively.
Turning to “SAGGSAGGSAVSPDETVPIKIDGKEVTVTFNGSKATITFPDGTVIEGTVSTEGSKLTLDLNLSAGGSAGGSA [r18_172_JUSTAS]”, the “folding stability dG unfold” value in data set [1] is 1.74 ± 0.053 kcal/mol; in data set [2] it was 1.46 ± 0.13 kcal/mol; in data set [3] it was 1.26 ± 0.059 kcal/mol.
In the case of “SAGGSAGGSAVYRTEDGRWVLVVEEVDGELTVHVYRRVDGRWELVETYPLEDLSPEARAALSAGGSAGGSAG [r3_241_TrROS_Hall]”, the “folding stability dG unfold” value worked out at 1.48 ± 0.025 kcal/mol in data set [1], 2.03 ± 0.053 kcal/mol in data set [2] and 2.33 ± 0.029 kcal/mol in data set [3].
Turning to “SAGGSAGGSAWGWISFNFEFLMFNPDGMFMPFRMQIDIRVEVKPEPKPKPKPKRDPNGKWKSAGGSAGGSAG [r3_252_TrROS]”, the results for the “folding stability dG unfold” value in data set [1], in data set [2] and in data set [3] were 1.91 ± 0.034 kcal/mol, 2.65 ± 0.15 kcal/mol and 2.8 ± 0.082 kcal/mol, respectively.
With “SAGGSAGGSAWHIRIHPGNEPQWIPIDDLRDKGLPPEELAEELQKKFGFKVEIVDPGWIRVKSAGGSAGGSA [r18_7_TrROS]”, the results for the “folding stability dG unfold” value in data set [1], in data set [2] and in data set [3] were -0.284 ± 0.26 kcal/mol, -0.348 ± 0.24 kcal/mol and -0.364 ± 0.42 kcal/mol, respectively.
For “SAGGSAGGSAWIVIPAEDIKENLDEIEFRNGDGQEYRIKVDVQEHGDRPYVMIDIVPPGQPISAGGSAGGSA [r18_447_TrROS]”, in that order: -0.413 ± 0.28 kcal/mol, 0.472 ± 0.18 kcal/mol and 0.882 ± 0.15 kcal/mol.
On to “SAGGSAGGSAWKKFMLEFPDGRPFMIEIDPDEPGRVKIYPPGNGKEEEIPPDDLKDLKITASAGGSAGGSAG [r3_451_TrROS]”, for which the “folding stability dG unfold” value in data set [1] was -0.0506 ± 0.36 kcal/mol; in data set [2], 0.507 ± 0.33 kcal/mol; in data set [3], 0.718 ± 0.27 kcal/mol.
For “SAGGSAGGSAWRLYIGGQKIEIPPGGPVKLERHKNGWVKIEIKMPGGRKKEFTIPIPPGATSAGGSAGGSAG [r3_207_TrROS]”, the “folding stability dG unfold” value in data set [1] amounted to 1.23 ± 0.14 kcal/mol; in data set [2], 1.66 ± 0.18 kcal/mol; in data set [3], 1.76 ± 0.17 kcal/mol.

Source of the values: the supplement of paper PMC12764529.
